Assay results: the supplement of paper PMC9112550, “Optimization of the antimicrobial peptide Bac7 by deep mutational scanning” (BMC Biology, 2022)

The sequences below were run on Escherichia coli TOP10 (assay: shrunken log2 fold change of peptide-encoding DNA abundance (4.5 h post-induction vs induction); higher = less antimicrobial activity (less host growth inhibition)). Conditions: time post-induction: 4.5 h; library: site-saturation at positions 5, 18, 19, 20.
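Also: peptides expressed intracellularly from a pBAD plasmid library in pooled LB shake-flask culture, induced with 0.3% L-arabinose, DNA abundance read by NGS, three biological replicates, DESeq2 with apeglm shrinkage.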

Going from RRIRIRPPRLPRPRPRPLTCPRP to RRIRTRPPRLPRPRPRPCWRPRP, the “shrunken log2 fold change” value rises from -0.174 to 0.156.

Going from RRIRQRPPRLPRPRPRPKPQPRP to RRIRGRPPRLPRPRPRPMVEPRP, the “shrunken log2 fold change” value rises from -0.0342 to 0.446.

First: RRIRHRPPRLPRPRPRPLMAPRP
Second: RRIRDRPPRLPRPRPRPPPVPRP
The “shrunken log2 fold change” value of the first is lower: -0.206 for the first, 0.867 for the second.

First: RRIRWRPPRLPRPRPRPWVTPRP
Second: RRIRHRPPRLPRPRPRPEGAPRP
The “shrunken log2 fold change” value of the first is lower: -0.37 for the first, 0.686 for the second.

RRIRIRPPRLPRPRPRPYHFPRP and RRIRVRPPRLPRPRPRPKSIPRP are within 0.2 log units of each other in “shrunken log2 fold change” value: -0.248 for the first, -0.172 for the second.

Going from RRIRPRPPRLPRPRPRPGVVPRP to RRIRRRPPRLPRPRPRPHRFPRP, the “shrunken log2 fold change” value falls from 0.215 to -0.0954.

RRIRSRPPRLPRPRPRPDFAPRP and RRIRTRPPRLPRPRPRPGDKPRP are within 0.2 log units of each other in “shrunken log2 fold change” value: -0.021 for the first, 0.137 for the second.

Compared with RRIRNRPPRLPRPRPRPCPNPRP, RRIRCRPPRLPRPRPRPVYWPRP is higher in “shrunken log2 fold change” value: -0.344 for the first, 0.134 for the second.

Going from RRIRPRPPRLPRPRPRPERWPRP to RRIRYRPPRLPRPRPRPIDYPRP, the “shrunken log2 fold change” value falls from 0.56 to -0.0298.

Compared with RRIRCRPPRLPRPRPRPTTIPRP, RRIRDRPPRLPRPRPRPMVDPRP is higher in “shrunken log2 fold change” value: -0.492 for the first, -0.0109 for the second.

RRIRIRPPRLPRPRPRPYVCPRP and RRIRQRPPRLPRPRPRPGFRPRP are within 0.2 log units of each other in “shrunken log2 fold change” value: 0.0199 for the first, 0.0901 for the second.

Compared with RRIRIRPPRLPRPRPRPFMYPRP, RRIRDRPPRLPRPRPRPRLNPRP is higher in “shrunken log2 fold change” value: -1.36 for the first, -0.0317 for the second.

First: RRIRFRPPRLPRPRPRPYCDPRP
Second: RRIRMRPPRLPRPRPRPPCGPRP
The “shrunken log2 fold change” value of the first is lower: -0.535 for the first, 0.788 for the second.

First: RRIRGRPPRLPRPRPRPVVWPRP
Second: RRIRWRPPRLPRPRPRPGVNPRP
The “shrunken log2 fold change” value of the first is higher: 1.26 for the first, 0.0981 for the second.

RRIRGRPPRLPRPRPRPQHHPRP and RRIRKRPPRLPRPRPRPATCPRP are within 0.2 log units of each other in “shrunken log2 fold change” value: -0.102 for the first, 0.0272 for the second.

First: RRIRIRPPRLPRPRPRPLLHPRP
Second: RRIRIRPPRLPRPRPRPIKEPRP
The “shrunken log2 fold change” value of the first is lower: -0.221 for the first, -0.021 for the second.

Compared with RRIRCRPPRLPRPRPRPARCPRP, RRIRRRPPRLPRPRPRPTGWPRP is higher in “shrunken log2 fold change” value: 0.477 for the first, 0.766 for the second.

RRIRSRPPRLPRPRPRPVPTPRP and RRIRVRPPRLPRPRPRPEHWPRP are within 0.2 log units of each other in “shrunken log2 fold change” value: 0.105 for the first, 0.28 for the second.

First: RRIRSRPPRLPRPRPRPYQMPRP
Second: RRIRNRPPRLPRPRPRPWFLPRP
The “shrunken log2 fold change” value of the first is lower: -0.557 for the first, -0.0768 for the second.

Going from RRIRNRPPRLPRPRPRPWHAPRP to RRIRARPPRLPRPRPRPERGPRP, the “shrunken log2 fold change” value rises from -0.0713 to 0.305.

RRIRQRPPRLPRPRPRPKACPRP and RRIRQRPPRLPRPRPRPYQLPRP are within 0.2 log units of each other in “shrunken log2 fold change” value: 0.0193 for the first, -0.00448 for the second.

RRIRVRPPRLPRPRPRPACMPRP and RRIRVRPPRLPRPRPRPDTPPRP are within 0.2 log units of each other in “shrunken log2 fold change” value: -0.0781 for the first, -0.0915 for the second.

RRIRCRPPRLPRPRPRPFDWPRP and RRIRLRPPRLPRPRPRPRVIPRP are within 0.2 log units of each other in “shrunken log2 fold change” value: -0.0737 for the first, 0.0615 for the second.

RRIRDRPPRLPRPRPRPPMNPRP and RRIRRRPPRLPRPRPRPWNEPRP are within 0.2 log units of each other in “shrunken log2 fold change” value: -0.258 for the first, -0.208 for the second.

Going from RRIRFRPPRLPRPRPRPAMKPRP to RRIRLRPPRLPRPRPRPGDEPRP, the “shrunken log2 fold change” value rises from -0.345 to 0.114.

Compared with RRIRCRPPRLPRPRPRPQPQPRP, RRIRSRPPRLPRPRPRPDADPRP is lower in “shrunken log2 fold change” value: 0.526 for the first, -0.0578 for the second.

First: RRIRGRPPRLPRPRPRPLMEPRP
Second: RRIRFRPPRLPRPRPRPGEGPRP
The “shrunken log2 fold change” value of the first is higher: 0.6 for the first, 0.375 for the second.

First: RRIRLRPPRLPRPRPRPNRIPRP
Second: RRIRWRPPRLPRPRPRPSYFPRP
The “shrunken log2 fold change” value of the first is lower: -0.0157 for the first, 1.15 for the second.

Going from RRIRWRPPRLPRPRPRPITYPRP to RRIRDRPPRLPRPRPRPRFHPRP, the “shrunken log2 fold change” value rises from -0.828 to -0.239.

Going from RRIRYRPPRLPRPRPRPVYPPRP to RRIRARPPRLPRPRPRPVHCPRP, the “shrunken log2 fold change” value rises from -0.208 to 0.0301.

Going from RRIRRRPPRLPRPRPRPAPMPRP to RRIRRRPPRLPRPRPRPNKFPRP, the “shrunken log2 fold change” value falls from 0.957 to -0.246.

Going from RRIRPRPPRLPRPRPRPNIYPRP to RRIRVRPPRLPRPRPRPCTMPRP, the “shrunken log2 fold change” value rises from -0.69 to -0.193.

First: RRIRWRPPRLPRPRPRPMNAPRP
Second: RRIRVRPPRLPRPRPRPAKYPRP
The “shrunken log2 fold change” value of the first is higher: 0.327 for the first, -0.575 for the second.

Compared with RRIRDRPPRLPRPRPRPNQPPRP, RRIRARPPRLPRPRPRPRLNPRP is higher in “shrunken log2 fold change” value: 0.0323 for the first, 0.316 for the second.

RRIRIRPPRLPRPRPRPRMWPRP and RRIRLRPPRLPRPRPRPETKPRP are within 0.2 log units of each other in “shrunken log2 fold change” value: -0.0292 for the first, 0.00291 for the second.

Going from RRIRARPPRLPRPRPRPHIYPRP to RRIRARPPRLPRPRPRPSVHPRP, the “shrunken log2 fold change” value rises from -0.805 to -0.0906.

RRIRARPPRLPRPRPRPYPPPRP and RRIRERPPRLPRPRPRPKISPRP are within 0.2 log units of each other in “shrunken log2 fold change” value: -0.129 for the first, 0.000121 for the second.

In the case of RRIRSRPPRLPRPRPRPPKDPRP, the “shrunken log2 fold change” value is reported as -0.0903.
